Consider 1 molecule from US20220265772A1, “USES OF DAN FAMILY BMP ANTAGONISTS FOR INHIBITING OCULAR NEOVASCULARIZATION AND TREATING OCULAR CONDITIONS” (9636137 Canada Inc., priority 2019, published 2022).

Assay [1] relates to mitochondrial metabolism in HUVECs. In words: NAD+/NADH cycling, ATP, glucose and lactate assays in HUVECs. In kind it is cell-based, human. How it is done:
HUVECs plated into 100 mm dishes were treated with COCO for various time points. NAD+ and NADH were extracted using ice cold alkali (0.5M NaOH, 1 mM EDTA) and acidic buffers (0.1M HCl) respectively. Extracts were heated at 60° C. for 30 min and buffers were neutralized with either the NADH (100 mM Tris-HCl pH 8.1, 0.05M HCl) or NAD+(0.4M Tris) neutralization buffers. To attain measurable quantities of NAD+ or NADH, an amplifying cycling assay was performed. Extracts and NAD+ standards were incubated with cycling reagent (67 mM Tris-HCl pH 8, 200 mM EtOH, 1.3 mM beta-mercaptoethanol, 0.01% BSA, 2 mM oxaloacetic acid, 0.5 μg/mL malate dehydrogenase, 5 μg/mL alcohol dehydrogenase) for 1 hour at room temperature. All samples were heated for 5 min at 100 C to stop enzymatic reactions then cooled on ice. For detection, extracts were incubated in an indicator buffer (50 mM 2-amino-2-methyl-propanol pH 9.9, 200 μM NAD+, 10 mM glutamate, 0.04% BSA, 5 μg/mL malate dehydrogenase, 2 μg/mL glutamate oxaloacetate transaminase) for 10 min at room temperature. Then 100 μL if sample was transferred to a black 96-well plate. Fluorescence was detected using a plate reader (TECAN) at an excitation of 365 nm and emission of 460 nm. Standard curves were generated and the concentration of NAD+ and NADH were calculated from the standard curve (references: Kato T., et al. Analytical Biochemistry 53, 86-97 (1973); Lin S., et al, JBC. Vol 276, No. 38, 36000-36007 (2001)).
ATP detection: HUVECs were plated into 100 mm dishes and treated with COCO for various time points. ATP was measured by luminescence (ATP Detection Assay Kit; Cayman Chemicals). Metabolite measurements: HUVECs were cultured for up to 48 hours in the presence or absence of COCO. Culture media was collected at 1 h, 3 h, 6 h, 12 h, 24 h and 48 h, centrifuged at 12000 rpm for 5 min, aliquoted and stored at −80 C. Media was analyzed for glucose concentration using a BioProfiler 400 Analyzer (BioNova). For measurements of lactate, the culture media was analyzed using the Lactate Colorimetric/Fluorometric Assay Kit (BioVision, K607) as per the manufacturer's instructions.
(§1) We exposed or not HUVECs to recombinant DAND5 and measured the concentration of free radicals using DCFDA and MitoSoxRed™. […] To further test this, we measure the NAD+/NADH ratio in cells treated or not with DAND5. […] Likewise, glucose uptake was reduced and lactate levels were increased in DAND5-treated HUVECs after 1 h (FIG. 8E, lower panel).

The next assay concerns HUVECs. In words: Free radicals / ROS in HUVECs (DCFDA, MitoSoxRed). In kind it is cell-based, human. Conditions: HUVECs. How it is done: FIG. 8 is a panel with graphs and pictures showing that Dand5 induces mitochondrial oxidative stress and alters ATP levels in HUVECs. FIG. 8A: HUVEC cells were treated with Dand5 in the presence or not of N-acetylcysteine (NAC) for up to 48 hours. Cells were then incubated with H2DCFDA. Hydrogen peroxide treated cells (H2O2) were included as a positive control. Fluorescence was measured at Ex: 485 nm and Em: 535 nm in a plate reader. Relative Fluorescence Units (RFU) were generated by normalizing the reading of each well to Hoescht staining (n=3,*p<0.05 **p<0.001). FIG. 8B: HUVEC cells were treated with Dand5 in for up to 48 hours. Cells were incubated with MitoSox Red. 3-nitro-proprionic acid (3-NP) treated cells were also examined as a positive control. Fluorescence was measured at Ex: 544 nm and Em: 590 nm. Relative Fluorescence Units (RFU) were generated by normalizing the reading of each well to Hoescht staining (n=3,*p<0.05). FIG. 8C: Primary culture of choroidal sprouts were treated with Dand5 in the absence or presence of NAC. FIG. 8D: Quantification of sprouting area by Image J. FIG. 8E: The ratio of NAD+ to NADH in whole cell extracts was determined using an Alcohol Dehydrogenase/Malate Dehydrogenase enzymatic cycling assay. Cells treated to hypoxic conditions (4% O2 for 3 hours) were included as a positive control (n=3,*p<0.05, **p<0.01). Likewise, glucose uptake was reduced in Dand5-treated HUVECs after 1 hour, while lactate levels were increased (lower panel). FIG. 8F: ATP levels were reduced in HUVECs exposed to Dand5 at 1, 6 and 24 hours (n=3,*p=0.05).
as §1

Another assay has as its system mouse choroidal explants. As to the kind of experiment: Choroidal explant sprouting in culture. In kind it is cell-based. The following applies: P5 mouse choroidal explants exposed to serum and VEGF. How it is done: FIG. 1 is a panel with pictures, bar graphs, and graphs showing that Dand5 reduces VEGF-mediated sprouting angiogenesis in cultured endothelial cells. FIG. 1A: HUVECs grown in a fibrinogen gel were treated with VEGF to induce tube formation in the presence or absence of Dand5. […] FIG. 1B: HUVECs were plated to confluency and scratched to stimulate a wound in the presence or absence of Dand5. Scale bar, 100 μm. FIG. 1C: Quantification of tube formation in FIG. 1A n=3, *p<0.05, **p<0.01). FIG. 1E: Choroids were isolated from wild-type mice and cultured in vitro in the absence or presence of Dand5. […] FIG. 1F: Quantification of sprouting areas in choroidal sprouts (n=3, ***p<0.0001). […] FIG. 1H: HUVECs were cultured in the presence or absence of Dand5 and analyzed by immunofluorescence using antibodies against phospho-Histone 3 (PH3), a marker of cellular mitosis, and phalloidin and DAPI (nuclei). […] FIG. 1I: Quantification immunofluorescent staining of phospho-histone 3 positive cells. […] FIG. 1K: Quantification of immunofluorescent staining of cleaved caspase 3 (n=2, n.s.).
To evaluate the cellular mechanisms underlying the inhibitory effects of DAND5 on endothelial cells sprouting, we assessed the effects of DAND5 on endothelial cell migration and proliferation. […]
We exposed or not HUVECs to recombinant DAND5 and measured the concentration of free radicals using DCFDA and MitoSoxRed™. […]

B1: DAND5: human recombinant DAND5/COCO biologically active fragment produced in E. coli, predicted 18.2 kDa monomer, R&D systems 3047-CC-050 (protein)
chain: MRPEPQSPRPQSWAAANQTWALGPGALPPLVPASALGSWKAFLGLQKARQLGMGRLQRGQDEVAAVTLPLNPQEVIQGMCKAVPFVQVFSRPGCSAIRLRNHLCFGHCSSLYIPGSDPTPLVLCNSCMPARKRWAPVVLWCLTGSSASRRRVKISTMLIEGCHCSPKA
B1: in assay [1] (HUVECs exposed to DAND5), the “NAD+/NADH ratio” value is on record as “decreased”. In assay [1] (HUVECs, after 1 h), the glucose uptake result is recorded as “reduced” and the lactate levels entry was “increased”. In assay [1] (HUVECs, after 1 h of treatment), the ATP levels result is recorded as “reduced”. In addition, the ATP levels result in assay [1] (HUVECs, at 1, 6 and 24 hours) is on record as “reduced”. Further, the “free radicals (DCFDA)” value with HUVECs (24 h and 48 h post-treatment) was “induced elevation of free radicals 24 h and 48 h post-treatment”. For the same molecule, in the assay on HUVECs (time-course analysis), the “mitochondrial reactive oxygen species (MitoSoxRed), time course” value is given as “induced before cytosolic ROS”. Besides, the “growth of choroidal explants” value in the assay on mouse choroidal explants was “inhibited the growth of P5 mouse choroidal explants exposed to serum and VEGF”.
